Results taken from article PMC6606445 (Nature structural & molecular biology, 2018).

What was measured:
[1] = molecular target: RecE-αN-tetramer (UniProt Q15431); assay: SEC-MALS
[2] = molecular target: SYCP1 αN-end (101-206) (human) (UniProt Q15431); assay: crystal structure
[3] = molecular target: truncated SYCP1 αN-end (101-175) (human) (UniProt Q15431); assay: crystal structure
[4] = molecular target: the molecule itself; assay: SEC-MALS
[5] = molecular target: the molecule itself; assay: SEC-MALS; remark: listed apart in the source
[6] = molecular target: the molecule itself; assay: crystal structure

Molecule: RecE-αN-tetramer (from UniProt Q15431 206-362)
- stoichiometry N [1]: 4

Molecule: SYCP1 αN-end (101-206) (from UniProt Q15431 101-206) (domain or fragment)
- stoichiometry N [2]: 4

Molecule: truncated SYCP1 αN-end (101-175) (from UniProt Q15431 101-175) (domain or fragment)
- stoichiometry N [3]: 4

B1: SYCP1 αC-end extended (676-783) L679A I688A (domain or fragment)
chain: ENLAEEVEKAKVAADEAVKLQKEIDKRCQHKIAEMVALMEKHKHQYDKIIEERDSELGLYKSKEQEQSSLRASLEIELSNLKAELLSVKKQLEIEREEKEKLKREAKE
- stoichiometry N [4]: 2

B2: GST-αC-dimer (domain or fragment)
chain: EKETQMEESNKARAAHSFVVTEFETTVCSLEELLRTEQQRLEKNEDQLKILTMELQKKSSELEEMTKLTNNKEVELEELKKVLGEKETLLYENKQFEKIAEELKGTEQELIGLLQAREKEVHDLEIQLTAITTSEQYYSKEVKDLKTELENEKLKNTELTSHCNKLSLENKELTQETSDMTLELKNQQEDINNNKKQEERMLKQIENLQETETQLRNELEYVREELKQKRDEVKCKLDKSEENCNNLRKQVENKNKYIEELQQENKALKKKGTAESKQLNVYEIKVNKLELELESAKQKFGEITDTYQKEIEDKKISEENLLEEVEKAKVIADEAVKLQKEIDKRCQHKIAEMVALMEKHKHQYDKIIEERDSELGLYKSKEQEQSSLRASLEIELSNLKAELLSVKKQLEIEREEKEKLKREAKE
- stoichiometry N [5]: 2

B3: SYCP1 αC-dimer (358-783) (domain or fragment)
chain: EKETQMEESNKARAAHSFVVTEFETTVCSLEELLRTEQQRLEKNEDQLKILTMELQKKSSELEEMTKLTNNKEVELEELKKVLGEKETLLYENKQFEKIAEELKGTEQELIGLLQAREKEVHDLEIQLTAITTSEQYYSKEVKDLKTELENEKLKNTELTSHCNKLSLENKELTQETSDMTLELKNQQEDINNNKKQEERMLKQIENLQETETQLRNELEYVREELKQKRDEVKCKLDKSEENCNNLRKQVENKNKYIEELQQENKALKKKGTAESKQLNVYEIKVNKLELELESAKQKFGEITDTYQKEIEDKKISEENLLEEVEKAKVIADEAVKLQKEIDKRCQHKIAEMVALMEKHKHQYDKIIEERDSELGLYKSKEQEQSSLRASLEIELSNLKAELLSVKKQLEIEREEKEKLKREAKE
- stoichiometry N [5]: 2

B4: SYCP1 αC-end (676-770) (domain or fragment)
chain: ENLLEEVEKAKVIADEAVKLQKEIDKRCQHKIAEMVALMEKHKHQYDKIIEERDSELGLYKSKEQEQSSLRASLEIELSNLKAELLSVKKQLEIE
- stoichiometry N [6]: 4

B5: SYCP1 αN (101-362) (domain or fragment)
chain: GLSRVYSKLYKEAEKIKKWKVSTEAELRQKESKLQENRKIIEAQRKAIQELQFGNEKVSLKLEEGIQENKDLIKENNATRHLCNLLKETCARSAEKTKKYEYEREETRQVYMDLNNNIEKMITAFEELRVQAENSRLEMHFKLKEDYEKIQHLEQEYKKEINDKEKQVSLLLIQITEKENKMKDLTFLLEESRDKVNQLEEKTKLQSENLKQSIEKQHHLTKELEDIKVSLQRSVSTQKALEEDLQIATKTICQLTEEKETQ
- binding result [5]: binds

B6: SYCP1 αCore-ΔNtip (112-783) (domain or fragment)
chain: EAEKIKKWKVSTEAELRQKESKLQENRKIIEAQRKAIQELQFGNEKVSLKLEEGIQENKDLIKENNATRHLCNLLKETCARSAEKTKKYEYEREETRQVYMDLNNNIEKMITAFEELRVQAENSRLEMHFKLKEDYEKIQHLEQEYKKEINDKEKQVSLLLIQITEKENKMKDLTFLLEESRDKVNQLEEKTKLQSENLKQSIEKQHHLTKELEDIKVSLQRSVSTQKALEEDLQIATKTICQLTEEKETQMEESNKARAAHSFVVTEFETTVCSLEELLRTEQQRLEKNEDQLKILTMELQKKSSELEEMTKLTNNKEVELEELKKVLGEKETLLYENKQFEKIAEELKGTEQELIGLLQAREKEVHDLEIQLTAITTSEQYYSKEVKDLKTELENEKLKNTELTSHCNKLSLENKELTQETSDMTLELKNQQEDINNNKKQEERMLKQIENLQETETQLRNELEYVREELKQKRDEVKCKLDKSEENCNNLRKQVENKNKYIEELQQENKALKKKGTAESKQLNVYEIKVNKLELELESAKQKFGEITDTYQKEIEDKKISEENLLEEVEKAKVIADEAVKLQKEIDKRCQHKIAEMVALMEKHKHQYDKIIEERDSELGLYKSKEQEQSSLRASLEIELSNLKAELLSVKKQLEIEREEKEKLKREAKE
- stoichiometry N [5]: 4

B7: SYCP1 αN-tetramer (206-362) (domain or fragment)
chain: ETRQVYMDLNNNIEKMITAFEELRVQAENSRLEMHFKLKEDYEKIQHLEQEYKKEINDKEKQVSLLLIQITEKENKMKDLTFLLEESRDKVNQLEEKTKLQSENLKQSIEKQHHLTKELEDIKVSLQRSVSTQKALEEDLQIATKTICQLTEEKETQ
- stoichiometry N [5]: 4

B8: SYCP1 αCore (101-783) (domain or fragment)
chain: GLSRVYSKLYKEAEKIKKWKVSTEAELRQKESKLQENRKIIEAQRKAIQELQFGNEKVSLKLEEGIQENKDLIKENNATRHLCNLLKETCARSAEKTKKYEYEREETRQVYMDLNNNIEKMITAFEELRVQAENSRLEMHFKLKEDYEKIQHLEQEYKKEINDKEKQVSLLLIQITEKENKMKDLTFLLEESRDKVNQLEEKTKLQSENLKQSIEKQHHLTKELEDIKVSLQRSVSTQKALEEDLQIATKTICQLTEEKETQMEESNKARAAHSFVVTEFETTVCSLEELLRTEQQRLEKNEDQLKILTMELQKKSSELEEMTKLTNNKEVELEELKKVLGEKETLLYENKQFEKIAEELKGTEQELIGLLQAREKEVHDLEIQLTAITTSEQYYSKEVKDLKTELENEKLKNTELTSHCNKLSLENKELTQETSDMTLELKNQQEDINNNKKQEERMLKQIENLQETETQLRNELEYVREELKQKRDEVKCKLDKSEENCNNLRKQVENKNKYIEELQQENKALKKKGTAESKQLNVYEIKVNKLELELESAKQKFGEITDTYQKEIEDKKISEENLLEEVEKAKVIADEAVKLQKEIDKRCQHKIAEMVALMEKHKHQYDKIIEERDSELGLYKSKEQEQSSLRASLEIELSNLKAELLSVKKQLEIEREEKEKLKREAKE
- binding result [5]: binds
